Reference: patent US20160031996A1 (CSL, published 2016)
Changes are numbered by the printed parent chain.

Legend:
Test in all cases: Western blot, whole cell extracts of 293F cells
[1] = target: T1, human IL-3Rα V53A, full length (human, UniProt P26951 19-378)
T1 construct: expressed in 293F cells; Western blot of whole cell extracts; also called V53, cell surface alanine
T1 sequence: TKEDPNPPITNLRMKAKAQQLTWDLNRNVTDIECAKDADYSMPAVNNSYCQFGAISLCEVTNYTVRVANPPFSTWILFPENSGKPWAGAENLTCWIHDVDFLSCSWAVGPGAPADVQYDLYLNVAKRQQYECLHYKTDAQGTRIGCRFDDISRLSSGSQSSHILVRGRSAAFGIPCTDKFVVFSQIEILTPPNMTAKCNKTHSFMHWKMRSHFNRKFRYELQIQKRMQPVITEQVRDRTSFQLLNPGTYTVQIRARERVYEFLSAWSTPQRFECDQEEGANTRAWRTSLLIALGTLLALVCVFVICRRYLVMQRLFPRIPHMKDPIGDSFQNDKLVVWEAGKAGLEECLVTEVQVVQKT

[2] = target: T2, human IL-3Rα W93A, full length (human, UniProt P26951 19-378)
T2 construct: expressed in 293F cells; Western blot of whole cell extracts; also called W93, cell surface alanine
T2 sequence: T1 sequence with A35V, W75A

[3] = target: T3, human IL-3Rα Y58A, full length (human, UniProt P26951 19-378)
T3 construct: expressed in 293F cells; Western blot of whole cell extracts; also called Y58, cell surface alanine
T3 sequence: T1 sequence with A35V, Y40A

[4] = target: T4, human IL-3Rα E51A, full length (human, UniProt P26951 19-378)
T4 construct: expressed in 293F cells; Western blot of whole cell extracts; also called E51, cell surface alanine
T4 sequence: T1 sequence with E33A, A35V

[5] = target: T5, human IL-3Rα R84A, full length (human, UniProt P26951 19-378)
T5 construct: expressed in 293F cells; Western blot of whole cell extracts; also called R84, cell surface alanine
T5 sequence: T1 sequence with A35V, R66A

[6] = target: T6, human IL-3Rα I94A, full length (human, UniProt P26951 19-378)
T6 construct: expressed in 293F cells; Western blot of whole cell extracts; also called I94, cell surface alanine
T6 sequence: T1 sequence with A35V, I76A

Measured: binding result

B1: monoclonal antibody 7G3 (antibody, V domains shown)
VH: EVQLQQSGPELVKPGASVKMSCKASGYTFTDYYMKWVKQSHGKSLEWIGDIIPSNGATFYNQKFKGKATLTVDRSSSTAYMHLNSLTSEDSAVYYCTRSHLLRASWFAYWGQGTLVTVSA
VL: DFVMTQSPSSLTVTAGEKVTMSCKSSQSLLNSGNQKNYLTWYLQKPGQPPKLLIYWASTRESGVPDRFTGSGSGTDFTLTISSVQAEDLAVYYCQNDYSYPYTFGGGTKLEIKR
notes: mouse monoclonal antibody (hybridoma ATCC HB-12009)
no binding: [1] | [2] | [3] | [4] | [5] | [6]
